Experimental data reported in patent publication US20210032299A1 (Eli Lilly, published 2021).
Starred links: 1 amine or outer side, 2 acyl side, 3 side chain; linkers in the order of their positions; H or OH if unused. Non-standard residues stand in square brackets, D forms with d. Groups on a side chain read outwards from the residue. No end group written: not given here. *: point of attachment. C20 diacid = O=C(O)CCCCCCCCCCCCCCCCCCC(=O)*; γGlu = O=C(O)[C@H](CCC(=O)[*:2])N[*:1]; αMeL = CC(C)C[C@](C)(N)C(=O)O; AEEA = NCCOCCOCC(=O)O; Aib = CC(C)(N)C(=O)O

Experiments:
Assay in all cases: cell-based or functional assay
[1] = biological target: human GLP-1 receptor (human, UniProt P43220 24-463)
[2] = biological target: T1, human glucose-dependent insulinotropic peptide receptor (human, UniProt P48546 22-466)
T1 sequence (looked up): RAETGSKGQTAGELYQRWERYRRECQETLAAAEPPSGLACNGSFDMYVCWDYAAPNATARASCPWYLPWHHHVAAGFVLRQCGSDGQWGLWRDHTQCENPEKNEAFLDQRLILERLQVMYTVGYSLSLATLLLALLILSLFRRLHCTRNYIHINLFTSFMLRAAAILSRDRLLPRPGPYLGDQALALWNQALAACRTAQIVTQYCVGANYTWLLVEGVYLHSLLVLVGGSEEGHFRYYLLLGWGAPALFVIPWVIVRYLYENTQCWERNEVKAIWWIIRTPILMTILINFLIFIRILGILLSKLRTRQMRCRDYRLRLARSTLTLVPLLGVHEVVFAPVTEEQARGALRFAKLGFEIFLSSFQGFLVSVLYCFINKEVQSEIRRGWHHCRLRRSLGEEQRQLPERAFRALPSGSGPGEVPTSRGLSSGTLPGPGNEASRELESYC

[3] = biological target: human glucagon receptor (human, UniProt P47871 26-477)
human glucagon receptor, sequence (P47871 26-477): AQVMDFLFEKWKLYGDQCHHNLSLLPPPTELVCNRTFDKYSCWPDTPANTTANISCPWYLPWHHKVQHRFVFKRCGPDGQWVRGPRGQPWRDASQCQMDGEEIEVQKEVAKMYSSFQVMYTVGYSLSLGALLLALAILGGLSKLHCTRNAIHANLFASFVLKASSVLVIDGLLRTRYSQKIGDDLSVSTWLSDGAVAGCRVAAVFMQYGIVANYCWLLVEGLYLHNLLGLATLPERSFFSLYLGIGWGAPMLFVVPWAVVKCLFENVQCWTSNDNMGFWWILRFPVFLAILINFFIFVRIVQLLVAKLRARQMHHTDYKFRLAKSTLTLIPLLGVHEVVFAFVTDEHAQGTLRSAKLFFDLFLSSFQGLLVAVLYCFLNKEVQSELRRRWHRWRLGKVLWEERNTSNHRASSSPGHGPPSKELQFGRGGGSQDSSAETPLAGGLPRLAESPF

B1: Example 66 (peptide)
peptide: Y[Aib]EGTFISDYSI[αMeL]LDKK([AEEA-AEEA-γGlu-C20 diacid])HQ[Aib]DFVEYLLETGPSSGAPPPS-NH2
modifications: N-terminus assumed
SMILES: CC[C@H](C)[C@H](NC(=O)[C@H](Cc1ccccc1)NC(=O)[C@@H](NC(=O)CNC(=O)[C@H](CCC(=O)O)NC(=O)C(C)(C)NC(=O)[C@@H](N)Cc1ccc(O)cc1)[C@@H](C)O)C(=O)N[C@@H](CO)C(=O)N[C@@H](CC(=O)O)C(=O)N[C@@H](Cc1ccc(O)cc1)C(=O)N[C@@H](CO)C(=O)N[C@H](C(=O)N[C@@](C)(CC(C)C)C(=O)N[C@@H](CC(C)C)C(=O)N[C@@H](CC(=O)O)C(=O)N[C@@H](CCCCN)C(=O)N[C@@H](CCCCNC(=O)COCCOCCNC(=O)COCCOCCNC(=O)CC[C@H](NC(=O)CCCCCCCCCCCCCCCCCCC(=O)O)C(=O)O)C(=O)N[C@@H](Cc1c[nH]cn1)C(=O)N[C@@H](CCC(N)=O)C(=O)NC(C)(C)C(=O)N[C@@H](CC(=O)O)C(=O)N[C@@H](Cc1ccccc1)C(=O)N[C@H](C(=O)N[C@@H](CCC(=O)O)C(=O)N[C@@H](Cc1ccc(O)cc1)C(=O)N[C@@H](CC(C)C)C(=O)N[C@@H](CC(C)C)C(=O)N[C@@H](CCC(=O)O)C(=O)N[C@H](C(=O)NCC(=O)N1CCC[C@H]1C(=O)N[C@@H](CO)C(=O)N[C@@H](CO)C(=O)NCC(=O)N[C@@H](C)C(=O)N1CCC[C@H]1C(=O)N1CCC[C@H]1C(=O)N1CCC[C@H]1C(=O)N[C@@H](CO)C(N)=O)[C@@H](C)O)C(C)C)[C@@H](C)CC
For B1, the “hGLP1R cAMP Rel EC50” value [1] was over 5000 nM, the “hGIPR cAMP Rel EC50” value [2] was 0.0786 nM and the “hGcgR cAMP Rel EC50” value [3] was over 5000 nM.

B2: Example 68 (peptide)
peptide: Y[Aib]EGTFISDYSI[αMeL]LDKK([AEEA-AEEA-γGlu-C20 diacid])HQ[Aib]DFVEYLLEAGPSSGAPPPS-NH2
modifications: N-terminus assumed
SMILES: CC[C@H](C)[C@H](NC(=O)[C@H](Cc1ccccc1)NC(=O)[C@@H](NC(=O)CNC(=O)[C@H](CCC(=O)O)NC(=O)C(C)(C)NC(=O)[C@@H](N)Cc1ccc(O)cc1)[C@@H](C)O)C(=O)N[C@@H](CO)C(=O)N[C@@H](CC(=O)O)C(=O)N[C@@H](Cc1ccc(O)cc1)C(=O)N[C@@H](CO)C(=O)N[C@H](C(=O)N[C@@](C)(CC(C)C)C(=O)N[C@@H](CC(C)C)C(=O)N[C@@H](CC(=O)O)C(=O)N[C@@H](CCCCN)C(=O)N[C@@H](CCCCNC(=O)COCCOCCNC(=O)COCCOCCNC(=O)CC[C@H](NC(=O)CCCCCCCCCCCCCCCCCCC(=O)O)C(=O)O)C(=O)N[C@@H](Cc1c[nH]cn1)C(=O)N[C@@H](CCC(N)=O)C(=O)NC(C)(C)C(=O)N[C@@H](CC(=O)O)C(=O)N[C@@H](Cc1ccccc1)C(=O)N[C@H](C(=O)N[C@@H](CCC(=O)O)C(=O)N[C@@H](Cc1ccc(O)cc1)C(=O)N[C@@H](CC(C)C)C(=O)N[C@@H](CC(C)C)C(=O)N[C@@H](CCC(=O)O)C(=O)N[C@@H](C)C(=O)NCC(=O)N1CCC[C@H]1C(=O)N[C@@H](CO)C(=O)N[C@@H](CO)C(=O)NCC(=O)N[C@@H](C)C(=O)N1CCC[C@H]1C(=O)N1CCC[C@H]1C(=O)N1CCC[C@H]1C(=O)N[C@@H](CO)C(N)=O)C(C)C)[C@@H](C)CC
For B2, the “hGLP1R cAMP Rel EC50” value [1] was over 5000 nM, the “hGIPR cAMP Rel EC50” value [2] was 0.0768 nM and the “hGcgR cAMP Rel EC50” value [3] was 3030 nM.

B3: Example 69 (peptide)
peptide: Y[Aib]EGTFISDYSI[αMeL]LDKK([AEEA-AEEA-γGlu-C20 diacid])HQ[Aib]DFVEYLLEGGPSSGAPPPS-NH2
modifications: N-terminus assumed
SMILES: CC[C@H](C)[C@H](NC(=O)[C@H](Cc1ccccc1)NC(=O)[C@@H](NC(=O)CNC(=O)[C@H](CCC(=O)O)NC(=O)C(C)(C)NC(=O)[C@@H](N)Cc1ccc(O)cc1)[C@@H](C)O)C(=O)N[C@@H](CO)C(=O)N[C@@H](CC(=O)O)C(=O)N[C@@H](Cc1ccc(O)cc1)C(=O)N[C@@H](CO)C(=O)N[C@H](C(=O)N[C@@](C)(CC(C)C)C(=O)N[C@@H](CC(C)C)C(=O)N[C@@H](CC(=O)O)C(=O)N[C@@H](CCCCN)C(=O)N[C@@H](CCCCNC(=O)COCCOCCNC(=O)COCCOCCNC(=O)CC[C@H](NC(=O)CCCCCCCCCCCCCCCCCCC(=O)O)C(=O)O)C(=O)N[C@@H](Cc1c[nH]cn1)C(=O)N[C@@H](CCC(N)=O)C(=O)NC(C)(C)C(=O)N[C@@H](CC(=O)O)C(=O)N[C@@H](Cc1ccccc1)C(=O)N[C@H](C(=O)N[C@@H](CCC(=O)O)C(=O)N[C@@H](Cc1ccc(O)cc1)C(=O)N[C@@H](CC(C)C)C(=O)N[C@@H](CC(C)C)C(=O)N[C@@H](CCC(=O)O)C(=O)NCC(=O)NCC(=O)N1CCC[C@H]1C(=O)N[C@@H](CO)C(=O)N[C@@H](CO)C(=O)NCC(=O)N[C@@H](C)C(=O)N1CCC[C@H]1C(=O)N1CCC[C@H]1C(=O)N1CCC[C@H]1C(=O)N[C@@H](CO)C(N)=O)C(C)C)[C@@H](C)CC
With B3 the “hGLP1R cAMP Rel EC50” value [1] was over 5000 nM, the “hGIPR cAMP Rel EC50” value [2] was 0.0302 nM and the “hGcgR cAMP Rel EC50” value [3] was 803 nM.

B4: Example 67 (peptide)
peptide: Y[Aib]EGTFISDYSI[αMeL]LDKK([AEEA-AEEA-γGlu-C20 diacid])HQ[Aib]DFVEYLLEQGPSSGAPPPS-NH2
modifications: N-terminus assumed
SMILES: CC[C@H](C)[C@H](NC(=O)[C@H](Cc1ccccc1)NC(=O)[C@@H](NC(=O)CNC(=O)[C@H](CCC(=O)O)NC(=O)C(C)(C)NC(=O)[C@@H](N)Cc1ccc(O)cc1)[C@@H](C)O)C(=O)N[C@@H](CO)C(=O)N[C@@H](CC(=O)O)C(=O)N[C@@H](Cc1ccc(O)cc1)C(=O)N[C@@H](CO)C(=O)N[C@H](C(=O)N[C@@](C)(CC(C)C)C(=O)N[C@@H](CC(C)C)C(=O)N[C@@H](CC(=O)O)C(=O)N[C@@H](CCCCN)C(=O)N[C@@H](CCCCNC(=O)COCCOCCNC(=O)COCCOCCNC(=O)CC[C@H](NC(=O)CCCCCCCCCCCCCCCCCCC(=O)O)C(=O)O)C(=O)N[C@@H](Cc1c[nH]cn1)C(=O)N[C@@H](CCC(N)=O)C(=O)NC(C)(C)C(=O)N[C@@H](CC(=O)O)C(=O)N[C@@H](Cc1ccccc1)C(=O)N[C@H](C(=O)N[C@@H](CCC(=O)O)C(=O)N[C@@H](Cc1ccc(O)cc1)C(=O)N[C@@H](CC(C)C)C(=O)N[C@@H](CC(C)C)C(=O)N[C@@H](CCC(=O)O)C(=O)N[C@@H](CCC(N)=O)C(=O)NCC(=O)N1CCC[C@H]1C(=O)N[C@@H](CO)C(=O)N[C@@H](CO)C(=O)NCC(=O)N[C@@H](C)C(=O)N1CCC[C@H]1C(=O)N1CCC[C@H]1C(=O)N1CCC[C@H]1C(=O)N[C@@H](CO)C(N)=O)C(C)C)[C@@H](C)CC
For B4, the “hGLP1R cAMP Rel EC50” value [1] was over 5000 nM, the “hGIPR cAMP Rel EC50” value [2] was 0.0627 nM and the “hGcgR cAMP Rel EC50” value [3] was over 5000 nM.
